Like-named read-outs stand apart in the source and are kept apart here.
Key:
[1] = target: human α-thrombin (human); assay: discontinuous thrombin inhibition assay (second order rate constant k2); pseudo first order conditions; purified API proteins and thrombin; mean ± SD of 5 determinations
[2] = target: human α-thrombin (human); assay: ELISA; thrombin capture assay: thrombin (5 µg/ml) coated on microtiter wells in PBS; cleared bacterial lysates applied neat for one hour; detected with HRP-conjugated sheep anti-human API; OD 450 nm, for P7–P3 variants normalized to API M358R lysate
[3] = target: human α-thrombin (human); assay: as above; remark: listed apart in the source

Substance	k2 (second order rate constant of thrombin inhibition) (mol^−1 sec^−1) [1]	relative OD450 versus API M358R [2]	relative OD450 versus API M358R [3]
API M358R P7–P3 variant AAFVS (from UniProt P01009 25-418)	1.01e+06	3.01	
API M358R P7–P3 variant DAFAA (from UniProt P01009 25-418)		1.59	
API M358R P7–P3 variant DVTVS (from UniProt P01009 25-418)		1.42	
API M358R P7–P3 variant EAHFR (from UniProt P01009 25-418)		1.51	
API M358R P7–P3 variant EATVS (from UniProt P01009 25-418)	617000	1.54	
API M358R P7–P3 variant EISLQ (from UniProt P01009 25-418)	783000	2.61	
API M358R P7–P3 variant FHTLG (from UniProt P01009 25-418)		2.13	
API M358R P7–P3 variant HATVS (from UniProt P01009 25-418)	504000	1.99	
API M358R P7–P3 variant LASMR (from UniProt P01009 25-418)	895000	1.89	
API M358R P7–P3 variant LINPI (from UniProt P01009 25-418)		1.54	
API M358R P7–P3 variant LSELA (from UniProt P01009 25-418)		1.28	
API M358R P7–P3 variant NLIPT (from UniProt P01009 25-418)	176000		
API M358R P7–P3 variant QVKPA (from UniProt P01009 25-418)		1.37	
API M358R P7–P3 variant TLSAV (from UniProt P01009 25-418)		1.36	
API M358R P7–P3 variant TVSVS (from UniProt P01009 25-418)		1.49	
API M358R P7–P3 variant VTTIT (from UniProt P01009 25-418)		1.9	

Now from value to substance:

k2 (second order rate constant of thrombin inhibition) (mol^−1 sec^−1) [1]	relative OD450 versus API M358R [2]	relative OD450 versus API M358R [3]	Substance
1e+06	1.64	1.7	API M358R P7–P3 variant DITMA (from UniProt P01009 25-418)
529000			API M358R P7–P3 variant DLTVS (plaque consensus) (from UniProt P01009 25-418)
	1.46		API M358R P7–P3 variant ISSAN (from UniProt P01009 25-418)
	1.45		API M358R P7–P3 variant LAITS (from UniProt P01009 25-418)
765000		1.5	API M358R P7–P3 variant LATVS (lysate consensus) (from UniProt P01009 25-418)
786000		2.1	API M358R P7–P3 variant LHTLG (from UniProt P01009 25-418)
896000	2.09		API M358R P7–P3 variant LTTLR (from UniProt P01009 25-418)
593000	1.91		API M358R P7–P3 variant QATFL (from UniProt P01009 25-418)
487000			recombinant hexahistidine-tagged API M358R (from UniProt P01009 25-418) (natural protein)
